From patent publication US20240033354A1 (University of California, published 2024)

Experiments:
[1] = target: TcdB2 (recombinant full-length, R20292 strain [sic], expressed in Bacillus megaterium) (Clostridium difficile, R20291 strain …, UniProt P18177 1-2366)
[2] = target: T1, TcdB1 holotoxin (recombinant full-length TcdB1, VPI10463 strain, expressed in Bacillus megaterium) (Clostridium difficile, VPI10463 strain, UniProt P18177 1-2366)
[3] = target: T1, TcdB1 holotoxin (recombinant …); assay: two-step pull-down, first step (FIG. 15C)

Row | Binder | Kd [1] | koff [1] | kon [1] | Kd [2] | koff [2] | kon [2] | binding result [3]
1 | Repeat1-Fc (CSPG4 Repeat1, residues 410-551, fused to the N-terminus of the Fc fragment of a human IgG1) (Fc fusion) ELPEPCVPEPGLPPVFANFTQLLTISPLVVAEGGTAWLEWRHVQPTLDLMEAELRKSQVLFSVTRGARHGELELDIPGAQARKMFTLLDVVNRKARFIHDGSEDTSDQLVLEVSVTARVPMPSCLRRGQTYLLPIQVNPVND | ~5.4 nM | ~4.63e-05 s⁻¹ | ~8340 M⁻¹ s⁻¹ | ~15.2 nM | ~0.000108 s⁻¹ | ~7060 M⁻¹ s⁻¹ | –
2 | CSPG4^mini (CSPG4 residues 30-764) (receptor) ASFFGENHLEVPVATALTDIDLQLQFSTSQPEALLLLAAGPADHLLLQLYSGRLQVRLVLGQEELRLQTPAETLLSDSIPHTVVLTVVEGWATLSVDGFLNASSAVPGAPLEVPYGLFVGGTGTLGLPYLRGTSRPLRGCLHAATLNGRSLLRPLTPDVHEGCAEEFSASDDVALGFSGPHSLAAFPAWGTQDEGTLEFTLTTQSRQAPLAFQAGGRRGDFIYVDIFEGHLRAVVEKGQGTVLLHNSVPVADGQPHEVSVHINAHRLEISVDQYPTHTSNRGVLSYLEPRGSLLLGGLDAEASRHLQEHRLGLTPEATNASLLGCMEDLSVNGQRRGLREALLTRNMAAGCRLEEEEYEDDAYGHYEAFSTLAPEAWPAMELPEPCVPEPGLPPVFANFTQLLTISPLVVAEGGTAWLEWRHVQPTLDLMEAELRKSQVLFSVTRGARHGELELDIPGAQARKMFTLLDVVNRKARFIHDGSEDTSDQLVLEVSVTARVPMPSCLRRGQTYLLPIQVNPVNDPPHIIFPHGSLMVILEHTQKPLGPEVFQAYDPDSACEGLTFQVLGTSSGLPVERRDQPGEPATEFSCRELEAGSLVYVHRGGPAQDLTFRVSDGLQASPPATLKVVAIRPAIQIHRSTGLRLAQGSAMPILPANLSVETNAVGQDVSVLFRVTGALQFGELQKQGAGGVEGAEWWATQAFHQRDVEQGRVRYLSTDPQHHAYDTVENLALEVQ | – | – | – | – | – | – | binds
